Experimental data as given in patent US20210269480A1 (published 2021).
*1 amine or outer side, *2 acyl side, *3 side chain or, on linkers, in order; H or OH if unused. Bridges are numbered along the chain shown (N, C = ends). Where no end group is shown, it is not given here. [ ]: non-standard residue; d: D form. TATA = O=C(CC[*:1])N1CN(C(=O)CC[*:2])CN(C(=O)CC[*:3])C1; 1Nal = N[C@@H](Cc1cccc2ccccc12)C(=O)O; 2Nal = N[C@@H](Cc1ccc2ccccc2c1)C(=O)O; Hyp = O=C(O)[C@@H]1C[C@@H](O)CN1; hArg = N=C(N)NCCCC[C@H](N)C(=O)O; Pip = O=C(O)[C@@H]1CCCCN1; Nle = CCCC[C@H](N)C(=O)O; Aze = O=C(O)[C@@H]1CCN1; βAla = NCCC(=O)O; Sar = CNCC(=O)O

T1: human Nectin-4 (human, UniProt Q96NY8 32-349)
T1 construct: a Gly32-Ser349 FLAG construct is described only under the SPR assay; also called PVRL4
T1 sequence (looked up): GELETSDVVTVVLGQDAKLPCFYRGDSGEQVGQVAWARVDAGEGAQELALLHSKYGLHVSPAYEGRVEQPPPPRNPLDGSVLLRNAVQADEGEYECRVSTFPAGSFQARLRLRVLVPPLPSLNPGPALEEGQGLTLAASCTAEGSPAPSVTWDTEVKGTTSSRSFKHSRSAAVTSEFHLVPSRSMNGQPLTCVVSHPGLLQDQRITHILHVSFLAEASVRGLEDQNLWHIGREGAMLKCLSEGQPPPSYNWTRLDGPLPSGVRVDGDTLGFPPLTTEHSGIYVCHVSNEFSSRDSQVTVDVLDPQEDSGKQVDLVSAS

T2: Human Nectin-4 (residues Gly32-Ser349) with C-terminal FLAG tag, biotinylated (human, UniProt Q96NY8 32-349, randomly biotinylated with EZ-Link Sulfo-NHS-LC-LC-Biotin)
T2 construct: range 32-349; Captured through biotin on a streptavidin CM5 chip in the SPR assay; also called PVRL4; not shown: C-terminal FLAG tag
T2 sequence (looked up): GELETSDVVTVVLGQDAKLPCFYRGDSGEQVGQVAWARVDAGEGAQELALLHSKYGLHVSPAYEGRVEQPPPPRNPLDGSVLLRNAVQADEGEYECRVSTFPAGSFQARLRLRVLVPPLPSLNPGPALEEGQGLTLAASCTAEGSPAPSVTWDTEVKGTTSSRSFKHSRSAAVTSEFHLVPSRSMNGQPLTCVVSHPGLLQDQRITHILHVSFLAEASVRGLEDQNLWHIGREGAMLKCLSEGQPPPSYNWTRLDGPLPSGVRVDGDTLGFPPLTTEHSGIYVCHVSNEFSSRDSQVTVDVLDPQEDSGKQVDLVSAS

B1: BCY7274 (peptide)
peptide: HDSCPFGC[Nle]KSWSWPIWCA
modifications: linker 4-8-18 via TATA
B2: BCY7275 (peptide)
peptide: HDSCPFGCM[hArg]SWSWPIWCA
modifications: linker 4-8-18 via TATA
B3: BCY7276 (peptide)
peptide: HDSCPFGCM[dK]SWSWPIWCA
modifications: linker 4-8-18 via TATA
B4: BCY7278 (peptide)
peptide: Q[hArg]WCAPLSDYWCNRICA
modifications: linker 4-12-16 via TATA
B5: BCY7279 (peptide)
peptide: QKWCAPLSDYWCN[hArg]ICA
modifications: linker 4-12-16 via TATA
B6: BCY7280 (peptide)
peptide: QK(Ac)WCAPLSDYWCNRICA
modifications: linker 4-12-16 via TATA
B7: BCY7281 (peptide)
peptide: ACPFGCMKNWSWPIWCTN[hArg]
modifications: linker 2-6-16 via TATA
notes: also called 80-09-02-T01-N003
B8: BCY7342 (peptide)
peptide: ACPFGCMKNWSAPIWCTNK
modifications: linker 2-6-16 via TATA
notes: also called 80-09-02-T01-N012
B9: BCY7344 (peptide)
peptide: ACPFGCMKNWSWPAWCTNK
modifications: linker 2-6-16 via TATA
notes: also called 80-09-02-T01-N014
B10: BCY7346 (peptide)
peptide: ACPFGCMKNWSWPIWCANK
modifications: linker 2-6-16 via TATA
notes: also called 80-09-02-T01-N016
B11: BCY7347 (peptide)
peptide: ACPFGCMKNWSWPIWCTAK
modifications: linker 2-6-16 via TATA
notes: also called 80-09-02-T01-N017
B12: BCY7348 (peptide)
peptide: ACPFGCMKNWSWPIWCTNA
modifications: linker 2-6-16 via TATA
notes: also called 80-09-02-T01-N018
B13: BCY7352 (peptide)
peptide: ACAFGCMKNWSWPIWCTNK
modifications: linker 2-6-16 via TATA
notes: also called 80-09-02-T01-N022
B14: BCY7354 (peptide)
peptide: ACPFACMKNWSWPIWCTNK
modifications: linker 2-6-16 via TATA
notes: also called 80-09-02-T01-N020
B15: BCY7356 (peptide)
peptide: ACPFGCMANWSWPIWCTNK
modifications: linker 2-6-16 via TATA
notes: also called 80-09-02-T01-N026
B16: BCY7357 (peptide)
peptide: ACPFGCMKAWSWPIWCTNK
modifications: linker 2-6-16 via TATA
notes: also called 80-09-02-T01-N027
B17: BCY7367 (peptide)
peptide: ACPFGCMKNWSWPIWC[dA]NK
modifications: linker 2-6-16 via TATA
B18: BCY7350 (peptide)
peptide: ACPF[dA]CMKNWSWPIWCTNK
modifications: linker 2-6-16 via TATA
B19: BCY7359 (peptide)
peptide: ACPFGCM[dA]NWSWPIWCTNK
modifications: linker 2-6-16 via TATA
B20: BCY7360 (peptide)
peptide: ACPFGCMK[dA]WSWPIWCTNK
modifications: linker 2-6-16 via TATA
B21: BCY7365 (peptide)
peptide: ACPFGCMKNWSWP[dA]WCTNK
modifications: linker 2-6-16 via TATA
B22: BCY7370 (peptide)
peptide: AC[dA]FGCMKNWSWPIWCTNK
modifications: linker 2-6-16 via TATA
B23: BCY7372 (peptide)
peptide: ACPFGCXKNWSWPIWCTNK
modifications: core CPFGC(Nle)KNWSWPIWC (printed (NIe)); TATA on 3 Cys
notes: also called 80-09-02-T01-N041
B24: BCY7391 (peptide)
peptide: Ac-CPFGCMKNWSWPIWCTNK
modifications: linker 1-5-15 via TATA
notes: also called 80-09-02-T01-N011
B25: BCY7393 (peptide)
peptide: Ac-CVTTSYDCWVTLGHCSRF
modifications: linker 1-8-15 via TATA
B26: BCY7420 (peptide)
peptide: XACPFGCMKNWSWPIWCA
modifications: N-terminal X = 1-Nal; TATA on 3 Cys
notes: also called 80-09-02-N009
B27: BCY7421 (peptide)
peptide: XACPFGCMKNWSWPIWCA
modifications: N-terminal X = 2-Nal; TATA on 3 Cys
notes: also called 80-09-02-N010
B28: BCY7426 (peptide)
peptide: Q[dK]WCAPLSDYWCNRICA
modifications: linker 4-12-16 via TATA
B29: BCY7521 (peptide)
peptide: XACPFGCMKNWSWPIWCA
modifications: N-terminal X = 44BPA (4,4-biphenylalanine); TATA on 3 Cys
notes: also called 80-09-02-N012
B30: BCY7591 (peptide)
peptide: Ac-CPFGCMKNWS[1Nal]PIWC
modifications: linker 1-5-15 via TATA
B31: BCY7592 (peptide)
peptide: Ac-CPFGCMKNWS[2Nal]PIWC
modifications: linker 1-5-15 via TATA
B32: BCY7594 (peptide)
peptide: Ac-CPFGCMKNWSW[Aze]IWC
modifications: linker 1-5-15 via TATA
B33: BCY7595 (peptide)
peptide: Ac-CPFGCMKNWSW[Pip]IWC
modifications: linker 1-5-15 via TATA
B34: BCY428 (peptide)
peptide: ACPFGCMKNWSWPIWCA
modifications: linker 2-6-16 via TATA
notes: Bicyclic peptide cyclised with TATA; also called 80-09-02-N002
B35: BCY7390 (peptide)
peptide: Ac-CPFGCMKNWSWPIWC
modifications: linker 1-5-15 via TATA
notes: Bicyclic peptide cyclised with TATA; also called 80-09-02-N008
B36: BCY7391 (peptide)
peptide: Ac-CPFGCMKNWSWPIWCTNK
modifications: linker 1-5-15 via TATA
notes: Bicyclic peptide cyclised with TATA; also called 80-09-02-T01-N011
B37: BCY7392 (peptide)
peptide: Ac-QKWCAPLSDYWCNRIC
modifications: linker 4-12-16 via TATA
notes: Bicyclic peptide cyclised with TATA
B38: BCY7393 (peptide)
peptide: Ac-CVTTSYDCWVTLGHCSRF
modifications: linker 1-8-15 via TATA
notes: as for B37
B39: BCY7559 (peptide)
peptide: {Ac-βAla}-[Sar][Sar][Sar][Sar][Sar]CPF[dA]CM[hArg]NWSWPIWC
modifications: linker 6-10-20 via TATA
notes: as for B37
B40: BCY7793 (peptide)
peptide: CPF[dD]CM[hArg]NWSTPIWC
modifications: linker 1-5-15 via TATA
notes: as for B37
B41: BCY8123 (peptide)
peptide: {Ac-βAla}-[Sar][Sar][Sar][Sar][Sar]CP[1Nal][dD]CM[hArg]DWSTPIWC
modifications: linker 6-10-20 via TATA
notes: as for B37
B42: BCY8030 (peptide)
peptide: Ac-CP[1Nal][dD]CM[hArg]NWSTPIWC
modifications: linker 1-5-15 via TATA
notes: as for B37
B43: BCY8211 (peptide)
peptide: Ac-CP[1Nal][dD]CL[hArg]DWSTPIWC
modifications: linker 1-5-15 via TATA
notes: as for B37
B44: BCY8038 (peptide)
peptide: Ac-CPF[dD]CL[hArg]NWSTPPWC
modifications: linker 1-5-15 via TATA
notes: as for B37
B45: BCY8122 (peptide)
peptide: {Ac-βAla}-[Sar][Sar][Sar][Sar][Sar]CP[1Nal][dD]CM[hArg]DWSTP[Hyp]WC
modifications: linker 6-10-20 via TATA
notes: as for B37
B46: BCY8120 (peptide)
peptide: {Ac-βAla}-[Sar][Sar][Sar][Sar][Sar]CP[1Nal][dD]CM[hArg]NWSTP[Hyp]WC
modifications: linker 6-10-20 via TATA
notes: as for B37
B47: BCY8121 (peptide)
peptide: {Ac-βAla}-[Sar][Sar][Sar][Sar][Sar]CP[1Nal][dD]CM[hArg]HWSTP[Hyp]WC
modifications: linker 6-10-20 via TATA
notes: as for B37
B48: BCY8124 (peptide)
peptide: Ac-CP[1Nal][dD]CM[hArg]NWSTP[Hyp]WC
modifications: linker 1-5-15 via TATA
notes: as for B37
B49: BCY8125 (peptide)
peptide: Ac-CP[1Nal][dD]CM[hArg]HWSTP[Hyp]WC
modifications: linker 1-5-15 via TATA
notes: as for B37

What follows are binders tested against T1, human Nectin-4 (assay: FP competition, tracer SEQ ID NO 217).
Method: Peptides were diluted to an appropriate concentration in assay buffer as described in the direct binding assay with a maximum of 5% DMSO, then serially diluted 1 in 2. […] Measurements were conducted as for the direct binding assay, however the gain was determined prior to the first measurement. Data analysis was in Systat Sigmaplot version 12.0 where the mP values were fit to a user defined cubic equation to generate a Ki value: […]

Compared with B1, B2 is 2.1-fold lower in Ki: 90.5 nM for the first, 43.3 nM for the second. The second binds more tightly here.

Going from B3 to B4, the Ki falls from 326 nM to 69 nM (4.7-fold). The second binds more tightly here.

First: B5
Second: B6
The Ki of the first is 4.9-fold lower: 44.4 nM for the first, 219 nM for the second.

Going from B7 to B8, the Ki rises from 22.9 nM to 310 nM (14-fold). The first binds more tightly here.

First: B9
Second: B10
The Ki of the first is 1.6-fold lower: 39.8 nM for the first, 64.9 nM for the second.

Compared with B11, B12 is 1.8-fold lower in Ki: 36.1 nM for the first, 20.6 nM for the second. The second binds more tightly here.

Going from B13 to B14, the Ki rises from 132 nM to 884 nM (6.7-fold). The first binds more tightly here.

B15 and B16 are within 1.5-fold of each other in Ki: 43.4 nM for the first, 45.2 nM for the second.

First: B17
Second: B18
The Ki of the first is 2.6-fold higher: 26.3 nM for the first, 10 nM for the second. The second binds more tightly here.

Compared with B19, B20 is 2.3-fold lower in Ki: 160 nM for the first, 68.2 nM for the second.

Going from B21 to B22, the Ki falls from 282 nM to 144 nM (2-fold). The second binds more tightly here.

Going from B23 to B24, the Ki falls from 72.6 nM to 13.3 nM (5.5-fold). The second binds more tightly here.

Going from B25 to B26, the Ki falls from 232 nM to 63.6 nM (3.6-fold).

Compared with B27, B28 is 2.4-fold higher in Ki: 28.5 nM for the first, 69 nM for the second.

B29 and B30 are within 1.5-fold of each other in Ki: 224 nM for the first, 180 nM for the second.

First: B31
Second: B32
The Ki of the first is 2-fold lower: 37.4 nM for the first, 73 nM for the second. The first binds more tightly here.

In the case of B33, the Ki is reported as 219 nM.

Each binder was assayed against T2, Human Nectin-4 (residues Gly32-Ser349) … (assay: SPR (Biacore), biotinylated human Nectin-4 on streptavidin chip).
Method: Biacore experiments were performed to determine kₐ (M⁻¹s⁻¹), kd (s⁻¹), KD (nM) values of monomeric peptides binding to human Necin-4 protein (obtained from Charles River).
For analysis of peptide binding, a Biacore 3000 instrument was used utilising a CM5 chip (GE Healthcare). Streptavidin was immobilized on the chip using standard amine-coupling chemistry at 25° C. with HBS-N (10 mM HEPES, 0.15 M NaCl, pH 7.4) as the running buffer. Briefly, the carboxymethyl dextran surface was activated with a 7 minute injection of a 1:1 ratio of 0.4 M 1-ethyl-3-(3-dimethylaminopropyl) carbodiimide hydrochloride (EDC)/0.1 M N-hydroxy succinimide (NHS) at a flow rate of 10 μl/min. For capture of streptavidin, the protein was diluted to 0.2 mg/ml in 10 mM sodium acetate (pH 4.5) and captured by injecting 120 μl of streptavidin onto the activated chip surface. Residual activated groups were blocked with a 7 minute injection of 1 M ethanolamine (pH 8.5) and biotinylated Nectin-4 captured to a level of 1,200-1,800 RU. Buffer was changed to PBS/0.05% Tween 20 and a dilution series of the peptides was prepared in this buffer with a final DMSO concentration of 0.5%. The top peptide concentration was 100 nM with 6 further 2-fold dilutions. The SPR analysis was run at 25° C. at a flow rate of 50 μl/min with 60 seconds association and dissociation between 400 and 1,200 seconds depending upon the individual peptide. Data were corrected for DMSO excluded volume effects. All data were double-referenced for blank injections and reference surface using standard processing procedures and data processing and kinetic fitting were performed using Scrubber software, version 2.0c (BioLogic Software). Data were fitted using simple 1:1 binding model allowing for mass transport effects where appropriate.

First: B34
Second: B35
The Kd of the first is 8.3-fold higher: 334 nM for the first, 40.3 nM for the second.

Compared with B36, B37 is 1.7-fold lower in Kd: 59.8 nM for the first, 35.7 nM for the second. The second binds more tightly here.

First: B38
Second: B39
The Kd of the first is 93-fold higher: 1380 nM for the first, 14.9 nM for the second.

First: B40
Second: B41
The Kd of the first is 18-fold higher: 47 nM for the first, 2.66 nM for the second.

First: B42
Second: B43
The Kd of the first is 4.3-fold lower: 1.71 nM for the first, 7.32 nM for the second.

Going from B44 to B45, the Kd falls from 44.5 nM to 0.89 nM (50-fold).

B46 and B47 are within 1.5-fold of each other in Kd: 0.67 nM for the first, 0.53 nM for the second.

B48 and B49 are within 1.5-fold of each other in Kd: 0.69 nM for the first, 0.52 nM for the second.
